Laboratory results as given in IntAct's records for PubMed 20562859.

Assays:
tcpr2_human TECPR2 = target: T1, tcpr2_human TECPR2 (UniProt O15040)
T1 sequence: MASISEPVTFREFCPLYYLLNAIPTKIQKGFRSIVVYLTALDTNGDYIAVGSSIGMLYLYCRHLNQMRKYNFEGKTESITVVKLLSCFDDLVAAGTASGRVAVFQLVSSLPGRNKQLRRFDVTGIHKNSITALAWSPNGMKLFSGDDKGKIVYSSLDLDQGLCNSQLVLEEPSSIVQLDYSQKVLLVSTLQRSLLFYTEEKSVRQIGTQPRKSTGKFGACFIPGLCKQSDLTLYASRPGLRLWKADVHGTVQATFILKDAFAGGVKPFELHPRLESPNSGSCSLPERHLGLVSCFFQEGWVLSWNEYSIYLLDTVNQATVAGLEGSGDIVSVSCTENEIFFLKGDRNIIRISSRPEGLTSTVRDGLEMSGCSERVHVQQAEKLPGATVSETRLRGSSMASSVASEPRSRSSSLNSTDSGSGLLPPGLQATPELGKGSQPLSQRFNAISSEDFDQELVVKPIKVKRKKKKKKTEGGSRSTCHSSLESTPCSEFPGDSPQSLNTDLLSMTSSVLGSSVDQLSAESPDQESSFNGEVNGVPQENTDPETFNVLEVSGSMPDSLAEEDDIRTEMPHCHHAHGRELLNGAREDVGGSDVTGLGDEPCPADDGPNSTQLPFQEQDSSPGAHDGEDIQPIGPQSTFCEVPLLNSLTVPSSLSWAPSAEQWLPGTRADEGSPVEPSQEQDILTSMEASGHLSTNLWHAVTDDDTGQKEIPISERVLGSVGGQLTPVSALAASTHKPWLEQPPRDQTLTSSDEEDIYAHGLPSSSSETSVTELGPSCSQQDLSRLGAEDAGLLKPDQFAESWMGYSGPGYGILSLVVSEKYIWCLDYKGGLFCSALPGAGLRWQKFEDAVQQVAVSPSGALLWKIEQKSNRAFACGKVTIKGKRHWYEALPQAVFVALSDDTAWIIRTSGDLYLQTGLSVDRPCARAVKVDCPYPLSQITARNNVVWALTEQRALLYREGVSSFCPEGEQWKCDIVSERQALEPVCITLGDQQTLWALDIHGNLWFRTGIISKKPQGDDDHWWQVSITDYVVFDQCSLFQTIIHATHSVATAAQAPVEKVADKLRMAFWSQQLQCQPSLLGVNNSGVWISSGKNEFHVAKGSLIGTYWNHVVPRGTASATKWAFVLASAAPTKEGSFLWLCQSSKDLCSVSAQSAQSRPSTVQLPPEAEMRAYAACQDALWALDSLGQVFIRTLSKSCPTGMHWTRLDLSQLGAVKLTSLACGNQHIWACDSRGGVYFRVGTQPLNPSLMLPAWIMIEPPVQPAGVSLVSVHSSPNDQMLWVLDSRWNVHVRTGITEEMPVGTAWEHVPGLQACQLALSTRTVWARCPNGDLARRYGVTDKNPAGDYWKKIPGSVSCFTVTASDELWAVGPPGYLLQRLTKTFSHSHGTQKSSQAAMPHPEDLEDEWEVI

nips2_human NIPSNAP2 = target: T2, nips2_human NIPSNAP2 (UniProt O75323)
T2 sequence: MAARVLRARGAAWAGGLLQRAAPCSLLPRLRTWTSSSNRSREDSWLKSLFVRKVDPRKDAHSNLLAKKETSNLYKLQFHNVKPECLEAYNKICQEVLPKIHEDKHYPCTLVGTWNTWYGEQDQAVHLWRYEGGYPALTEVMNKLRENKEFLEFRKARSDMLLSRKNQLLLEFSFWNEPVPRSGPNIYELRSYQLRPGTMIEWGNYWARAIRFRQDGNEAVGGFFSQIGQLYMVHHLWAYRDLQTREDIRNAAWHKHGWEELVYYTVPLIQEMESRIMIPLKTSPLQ

tbc15_human TBC1D15 = target: T3, tbc15_human TBC1D15 (UniProt Q8TC07)
T3 sequence: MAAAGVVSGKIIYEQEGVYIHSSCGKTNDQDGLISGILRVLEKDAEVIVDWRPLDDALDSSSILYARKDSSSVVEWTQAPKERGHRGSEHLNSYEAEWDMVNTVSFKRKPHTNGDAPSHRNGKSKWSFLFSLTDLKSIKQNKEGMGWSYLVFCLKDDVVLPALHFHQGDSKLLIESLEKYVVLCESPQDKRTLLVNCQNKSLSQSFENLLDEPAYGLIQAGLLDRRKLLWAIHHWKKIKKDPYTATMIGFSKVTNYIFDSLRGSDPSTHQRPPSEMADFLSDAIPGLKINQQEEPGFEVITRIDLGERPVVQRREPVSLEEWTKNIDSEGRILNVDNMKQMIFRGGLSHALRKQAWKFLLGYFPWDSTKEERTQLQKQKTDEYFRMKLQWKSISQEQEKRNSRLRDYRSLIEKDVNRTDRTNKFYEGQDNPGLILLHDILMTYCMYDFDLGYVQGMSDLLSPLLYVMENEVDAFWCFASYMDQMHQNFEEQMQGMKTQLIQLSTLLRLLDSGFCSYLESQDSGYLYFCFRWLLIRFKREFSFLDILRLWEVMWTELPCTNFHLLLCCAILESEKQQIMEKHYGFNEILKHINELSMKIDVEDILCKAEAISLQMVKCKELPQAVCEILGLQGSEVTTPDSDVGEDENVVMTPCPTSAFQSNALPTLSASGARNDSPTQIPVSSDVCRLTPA

echa_human HADHA = echa_human HADHA (UniProt P40939)
Sequence of echa_human HADHA (P40939 whole entry): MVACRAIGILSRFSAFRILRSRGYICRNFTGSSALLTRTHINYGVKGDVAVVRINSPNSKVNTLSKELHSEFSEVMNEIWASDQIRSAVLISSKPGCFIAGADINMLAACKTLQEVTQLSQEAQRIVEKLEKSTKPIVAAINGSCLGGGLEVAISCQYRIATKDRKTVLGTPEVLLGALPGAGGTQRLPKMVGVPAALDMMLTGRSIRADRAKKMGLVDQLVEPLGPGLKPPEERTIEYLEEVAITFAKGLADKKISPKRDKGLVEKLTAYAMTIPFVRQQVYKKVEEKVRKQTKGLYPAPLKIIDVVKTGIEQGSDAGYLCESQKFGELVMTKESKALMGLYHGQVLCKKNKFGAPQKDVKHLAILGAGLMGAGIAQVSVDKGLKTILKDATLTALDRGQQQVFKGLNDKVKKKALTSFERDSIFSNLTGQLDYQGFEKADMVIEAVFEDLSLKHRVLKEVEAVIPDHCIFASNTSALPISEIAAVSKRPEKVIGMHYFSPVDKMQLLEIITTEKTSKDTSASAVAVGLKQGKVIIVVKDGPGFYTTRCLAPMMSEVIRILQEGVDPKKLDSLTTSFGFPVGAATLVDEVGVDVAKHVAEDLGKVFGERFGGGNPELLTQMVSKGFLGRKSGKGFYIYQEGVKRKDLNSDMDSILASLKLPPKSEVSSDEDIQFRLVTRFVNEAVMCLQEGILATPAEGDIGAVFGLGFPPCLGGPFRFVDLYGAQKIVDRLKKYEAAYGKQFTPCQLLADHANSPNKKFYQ

atg3_human ATG3 = atg3_human ATG3 (UniProt Q9NT62)
Sequence of atg3_human ATG3 (Q9NT62 whole entry): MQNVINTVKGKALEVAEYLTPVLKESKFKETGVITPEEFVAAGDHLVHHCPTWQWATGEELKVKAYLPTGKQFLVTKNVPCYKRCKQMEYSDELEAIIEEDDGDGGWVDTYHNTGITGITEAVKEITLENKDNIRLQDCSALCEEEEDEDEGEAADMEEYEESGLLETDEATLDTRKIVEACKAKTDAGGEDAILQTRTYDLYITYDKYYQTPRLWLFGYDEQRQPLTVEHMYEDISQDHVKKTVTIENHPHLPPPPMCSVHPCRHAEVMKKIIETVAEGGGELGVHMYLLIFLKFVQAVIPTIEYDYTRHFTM

atg2a_human ATG2A = atg2a_human ATG2A (UniProt Q2TAZ0)
Sequence of atg2a_human ATG2A (Q2TAZ0 whole entry): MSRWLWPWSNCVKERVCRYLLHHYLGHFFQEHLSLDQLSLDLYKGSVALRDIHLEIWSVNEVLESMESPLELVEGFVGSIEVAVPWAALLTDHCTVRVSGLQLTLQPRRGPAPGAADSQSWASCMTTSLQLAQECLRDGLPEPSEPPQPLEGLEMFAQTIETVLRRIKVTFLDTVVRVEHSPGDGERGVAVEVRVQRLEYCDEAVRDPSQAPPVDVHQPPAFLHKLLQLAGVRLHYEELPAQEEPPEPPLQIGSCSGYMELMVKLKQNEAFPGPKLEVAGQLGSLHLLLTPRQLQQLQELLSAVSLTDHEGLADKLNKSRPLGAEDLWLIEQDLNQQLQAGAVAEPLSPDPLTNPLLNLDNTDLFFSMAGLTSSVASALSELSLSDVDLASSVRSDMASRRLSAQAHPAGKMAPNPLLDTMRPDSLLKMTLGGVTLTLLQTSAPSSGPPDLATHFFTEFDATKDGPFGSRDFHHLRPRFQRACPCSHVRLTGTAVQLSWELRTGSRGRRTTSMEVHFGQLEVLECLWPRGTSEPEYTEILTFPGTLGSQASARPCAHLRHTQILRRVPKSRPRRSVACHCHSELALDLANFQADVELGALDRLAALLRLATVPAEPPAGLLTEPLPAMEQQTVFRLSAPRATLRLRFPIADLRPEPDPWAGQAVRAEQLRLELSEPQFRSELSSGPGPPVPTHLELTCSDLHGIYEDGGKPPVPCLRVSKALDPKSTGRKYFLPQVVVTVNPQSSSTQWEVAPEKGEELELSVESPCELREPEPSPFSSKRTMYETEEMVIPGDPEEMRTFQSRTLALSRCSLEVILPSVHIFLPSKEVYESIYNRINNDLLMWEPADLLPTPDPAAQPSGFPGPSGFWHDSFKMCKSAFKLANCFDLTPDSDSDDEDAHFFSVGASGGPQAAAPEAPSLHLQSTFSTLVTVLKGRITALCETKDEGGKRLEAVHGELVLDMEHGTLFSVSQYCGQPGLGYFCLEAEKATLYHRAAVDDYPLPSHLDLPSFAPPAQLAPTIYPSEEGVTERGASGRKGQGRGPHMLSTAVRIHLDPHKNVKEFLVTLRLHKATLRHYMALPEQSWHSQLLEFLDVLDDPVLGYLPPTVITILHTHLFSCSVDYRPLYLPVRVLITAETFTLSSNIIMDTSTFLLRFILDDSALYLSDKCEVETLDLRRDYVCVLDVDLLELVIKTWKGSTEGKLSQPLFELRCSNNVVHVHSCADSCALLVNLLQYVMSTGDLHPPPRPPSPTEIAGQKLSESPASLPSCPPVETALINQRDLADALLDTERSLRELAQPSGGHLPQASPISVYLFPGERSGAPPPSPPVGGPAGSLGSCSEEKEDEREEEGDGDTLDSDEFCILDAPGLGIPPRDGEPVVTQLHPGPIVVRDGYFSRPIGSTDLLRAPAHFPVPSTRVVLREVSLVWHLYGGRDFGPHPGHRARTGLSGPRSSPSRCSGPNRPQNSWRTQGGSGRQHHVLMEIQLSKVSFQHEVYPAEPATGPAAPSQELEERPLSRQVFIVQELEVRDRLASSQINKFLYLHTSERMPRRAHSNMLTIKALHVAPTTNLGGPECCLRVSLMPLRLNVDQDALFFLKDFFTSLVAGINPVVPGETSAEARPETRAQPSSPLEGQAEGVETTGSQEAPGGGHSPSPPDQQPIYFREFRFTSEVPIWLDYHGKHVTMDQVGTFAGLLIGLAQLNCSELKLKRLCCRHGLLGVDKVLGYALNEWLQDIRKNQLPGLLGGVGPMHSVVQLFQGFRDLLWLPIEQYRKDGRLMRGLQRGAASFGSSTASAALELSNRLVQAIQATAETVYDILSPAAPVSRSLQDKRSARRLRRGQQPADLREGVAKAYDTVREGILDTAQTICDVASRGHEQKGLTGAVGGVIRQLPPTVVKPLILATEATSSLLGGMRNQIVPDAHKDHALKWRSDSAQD

rasf3_human RASSF3 = target: T4, rasf3_human RASSF3 (UniProt Q86WH2)
T4 sequence: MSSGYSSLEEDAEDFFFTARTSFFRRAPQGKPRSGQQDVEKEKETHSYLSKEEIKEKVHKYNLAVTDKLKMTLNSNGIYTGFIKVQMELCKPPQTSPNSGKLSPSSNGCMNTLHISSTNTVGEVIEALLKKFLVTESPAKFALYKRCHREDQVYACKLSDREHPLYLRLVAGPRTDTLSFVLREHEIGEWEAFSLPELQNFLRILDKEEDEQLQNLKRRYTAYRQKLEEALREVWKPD

| effect of a mutation on the interaction (tcpr2_human TECPR2) | effect of a mutation on the interaction (nips2_human NIPSNAP2) | effect of a mutation on the interaction (tbc15_human TBC1D15) | effect of a mutation on the interaction (echa_human HADHA) | effect of a mutation on the interaction (atg3_human ATG3) | effect of a mutation on the interaction (atg2a_human ATG2A) | effect of a mutation on the interaction (rasf3_human RASSF3) | Substance |
| --- | --- | --- | --- | --- | --- | --- | --- |
| decreasing interaction | increasing interaction | decreasing interaction | increasing interaction | disrupting interaction | increasing interaction | increasing interaction | Microtubule-associated protein 1 light chain 3 beta (Homo sapiens) (from UniProt Q9GZQ8) F52A;L53A |
| disrupting interaction | decreasing interaction | decreasing interaction | disrupting interaction | disrupting interaction | decreasing interaction | decreasing interaction | Microtubule-associated protein 1 light chain 3 beta (Homo sapiens) (from UniProt Q9GZQ8) R69A |
